What follows are sequences tested on Escherichia coli TOP10 (assay: shrunken log2 fold change of peptide-encoding DNA abundance (4.5 h post-induction vs induction); higher = less antimicrobial activity (less host growth inhibition)). Conditions: time post-induction: 4.5 h; library: site-saturation at positions 5, 18, 19, 20.
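Further: peptides expressed intracellularly from a pBAD plasmid library in pooled LB shake-flask culture, induced with 0.3% L-arabinose, DNA abundance read by NGS, three biological replicates, DESeq2 with apeglm shrinkage.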

Row | Sequence | shrunken log2 fold change
1 | RRIRERPPRLPRPRPRPKVVPRP | -0.0857
2 | RRIRERPPRLPRPRPRPKWMPRP | -0.0884
3 | RRIRERPPRLPRPRPRPKWVPRP | -0.0367
4 | RRIRERPPRLPRPRPRPKYCPRP | -0.368
5 | RRIRERPPRLPRPRPRPKYSPRP | -0.866
6 | RRIRERPPRLPRPRPRPLAHPRP | -0.368
7 | RRIRERPPRLPRPRPRPLARPRP | 0.179
8 | RRIRERPPRLPRPRPRPLCSPRP | -0.512
9 | RRIRERPPRLPRPRPRPLDKPRP | -0.114
10 | RRIRERPPRLPRPRPRPLDVPRP | -0.304
11 | RRIRERPPRLPRPRPRPLDYPRP | -0.163
12 | RRIRERPPRLPRPRPRPLFKPRP | -0.543
13 | RRIRERPPRLPRPRPRPLGLPRP | -0.00554
14 | RRIRERPPRLPRPRPRPLHPPRP | 0.309
15 | RRIRERPPRLPRPRPRPLHQPRP | -0.0505
16 | RRIRERPPRLPRPRPRPLIAPRP | -0.128
17 | RRIRERPPRLPRPRPRPLINPRP | -0.512
18 | RRIRERPPRLPRPRPRPLKWPRP | 0.159
19 | RRIRERPPRLPRPRPRPLLIPRP | -0.437
20 | RRIRERPPRLPRPRPRPLMHPRP | -0.231
21 | RRIRERPPRLPRPRPRPLMNPRP | -0.336
22 | RRIRERPPRLPRPRPRPLNHPRP | -0.443

Row | Sequence | shrunken log2 fold change
23 | RRIRERPPRLPRPRPRPLPRPRP | 0.179
24 | RRIRERPPRLPRPRPRPLQDPRP | -0.133
25 | RRIRERPPRLPRPRPRPLQEPRP | -0.154
26 | RRIRERPPRLPRPRPRPLRCPRP | 0.187
27 | RRIRERPPRLPRPRPRPLRDPRP | -0.0299
28 | RRIRERPPRLPRPRPRPLSGPRP | -0.135
29 | RRIRERPPRLPRPRPRPLSNPRP | 0.0169
30 | RRIRERPPRLPRPRPRPLSPPRP | -0.17
31 | RRIRERPPRLPRPRPRPLTDPRP | -0.394
32 | RRIRERPPRLPRPRPRPLTTPRP | -0.395
33 | RRIRERPPRLPRPRPRPLTVPRP | -0.0383
34 | RRIRERPPRLPRPRPRPLVCPRP | 0.00932
35 | RRIRERPPRLPRPRPRPLWSPRP | -0.125
36 | RRIRERPPRLPRPRPRPLWTPRP | 0.0667
37 | RRIRERPPRLPRPRPRPLYAPRP | -0.101
38 | RRIRERPPRLPRPRPRPLYEPRP | -1.24
39 | RRIRERPPRLPRPRPRPLYQPRP | -0.176
40 | RRIRERPPRLPRPRPRPLYVPRP | -0.939
41 | RRIRERPPRLPRPRPRPLYWPRP | -0.383
42 | RRIRERPPRLPRPRPRPMAYPRP | -0.0427
43 | RRIRERPPRLPRPRPRPMCIPRP | -0.133
44 | RRIRERPPRLPRPRPRPMCLPRP | -0.38

Row | Sequence | shrunken log2 fold change
45 | RRIRERPPRLPRPRPRPMDFPRP | -0.0298
46 | RRIRERPPRLPRPRPRPMDHPRP | -0.0102
47 | RRIRERPPRLPRPRPRPMDSPRP | -0.0933
48 | RRIRERPPRLPRPRPRPMEAPRP | -0.261
49 | RRIRERPPRLPRPRPRPMEDPRP | -0.0739
50 | RRIRERPPRLPRPRPRPMEMPRP | 0.0606
51 | RRIRERPPRLPRPRPRPMGAPRP | 0.0638
52 | RRIRERPPRLPRPRPRPMGKPRP | -0.01
53 | RRIRERPPRLPRPRPRPMHHPRP | -0.394
54 | RRIRERPPRLPRPRPRPMIQPRP | -0.176
55 | RRIRERPPRLPRPRPRPMIVPRP | -0.477
56 | RRIRERPPRLPRPRPRPMIYPRP | -0.12
57 | RRIRERPPRLPRPRPRPMKPPRP | -0.0018
58 | RRIRERPPRLPRPRPRPMLIPRP | -0.266
59 | RRIRERPPRLPRPRPRPMMPPRP | 0.0391
60 | RRIRERPPRLPRPRPRPMNMPRP | -0.176
61 | RRIRERPPRLPRPRPRPMNSPRP | -0.0427
62 | RRIRERPPRLPRPRPRPMRWPRP | 0.472
63 | RRIRERPPRLPRPRPRPMVGPRP | 0.17
64 | RRIRERPPRLPRPRPRPMVWPRP | -0.0633
65 | RRIRERPPRLPRPRPRPMYQPRP | -0.0801
66 | RRIRERPPRLPRPRPRPNAAPRP | 0.163

Row | Sequence | shrunken log2 fold change
67 | RRIRERPPRLPRPRPRPNAKPRP | -0.134
68 | RRIRERPPRLPRPRPRPNESPRP | 0.0842
69 | RRIRERPPRLPRPRPRPNGMPRP | -0.0154
70 | RRIRERPPRLPRPRPRPNHDPRP | -0.551
71 | RRIRERPPRLPRPRPRPNHHPRP | -0.845
72 | RRIRERPPRLPRPRPRPNKHPRP | -0.575
73 | RRIRERPPRLPRPRPRPNKKPRP | -0.187
74 | RRIRERPPRLPRPRPRPNKQPRP | -0.174
75 | RRIRERPPRLPRPRPRPNNGPRP | -0.0529
76 | RRIRERPPRLPRPRPRPNPQPRP | 0.0138
77 | RRIRERPPRLPRPRPRPNQHPRP | -0.228
78 | RRIRERPPRLPRPRPRPNQWPRP | 0.062
79 | RRIRERPPRLPRPRPRPNRAPRP | 0.0169
80 | RRIRERPPRLPRPRPRPNRHPRP | -0.516
81 | RRIRERPPRLPRPRPRPNTAPRP | 0.0197
82 | RRIRERPPRLPRPRPRPNTEPRP | 0.0956
83 | RRIRERPPRLPRPRPRPNYQPRP | -0.812
84 | RRIRERPPRLPRPRPRPNYTPRP | -0.773
85 | RRIRERPPRLPRPRPRPPAFPRP | 0.331
86 | RRIRERPPRLPRPRPRPPAKPRP | 0.176
87 | RRIRERPPRLPRPRPRPPALPRP | 0.114
88 | RRIRERPPRLPRPRPRPPCEPRP | -0.075

Row | Sequence | shrunken log2 fold change
89 | RRIRERPPRLPRPRPRPPCGPRP | 0.259
90 | RRIRERPPRLPRPRPRPPDHPRP | -0.0455
91 | RRIRERPPRLPRPRPRPPDMPRP | -0.332
92 | RRIRERPPRLPRPRPRPPDVPRP | -0.108
93 | RRIRERPPRLPRPRPRPPEMPRP | 0.0477
94 | RRIRERPPRLPRPRPRPPHTPRP | -0.152
95 | RRIRERPPRLPRPRPRPPKHPRP | -0.0654
96 | RRIRERPPRLPRPRPRPPLEPRP | 0.161
97 | RRIRERPPRLPRPRPRPPMQPRP | 0.225
98 | RRIRERPPRLPRPRPRPPNQPRP | -0.118
99 | RRIRERPPRLPRPRPRPPPDPRP | 0.505
100 | RRIRERPPRLPRPRPRPPPSPRP | 0.415
101 | RRIRERPPRLPRPRPRPPPTPRP | 0.518
102 | RRIRERPPRLPRPRPRPPQVPRP | 0.207
103 | RRIRERPPRLPRPRPRPPRFPRP | 0.26
104 | RRIRERPPRLPRPRPRPPRPPRP | 0.64
105 | RRIRERPPRLPRPRPRPPTCPRP | -0.0707
106 | RRIRERPPRLPRPRPRPPTKPRP | 0.774
107 | RRIRERPPRLPRPRPRPPTLPRP | 0.162
108 | RRIRERPPRLPRPRPRPPVMPRP | 0.0499
109 | RRIRERPPRLPRPRPRPQACPRP | -0.0746

From the supplement of paper PMC9112550, “Optimization of the antimicrobial peptide Bac7 by deep mutational scanning” (BMC Biology, 2022)
